The values below come from patent US20140087995A1 (published 2014).

Numbered stars: 1 amine (or outer) side, 2 acyl side, 3 side chain; on linkers, the order of the positions; unused ones are H or OH. Bridge positions count the residues as written; N and C are the ends. Square brackets hold non-standard residues; d marks the D form. Side chains are listed from the residue outwards. Ends that are not written are not given here. * marks the point of attachment. C20 diacid = O=C(O)CCCCCCCCCCCCCCCCCCC(=O)*; γGlu = O=C(O)[C@H](CCC(=O)[*:2])N[*:1]

The target of assay [1] is T1, human calcitonin receptor (human, UniProt P30988 25-474).
T1 construct: whole, on cells; Membranes of BHK cells stably transfected with the human calcitonin receptor (Assay VII); also called hCTR; hCT
T1 sequence (looked up): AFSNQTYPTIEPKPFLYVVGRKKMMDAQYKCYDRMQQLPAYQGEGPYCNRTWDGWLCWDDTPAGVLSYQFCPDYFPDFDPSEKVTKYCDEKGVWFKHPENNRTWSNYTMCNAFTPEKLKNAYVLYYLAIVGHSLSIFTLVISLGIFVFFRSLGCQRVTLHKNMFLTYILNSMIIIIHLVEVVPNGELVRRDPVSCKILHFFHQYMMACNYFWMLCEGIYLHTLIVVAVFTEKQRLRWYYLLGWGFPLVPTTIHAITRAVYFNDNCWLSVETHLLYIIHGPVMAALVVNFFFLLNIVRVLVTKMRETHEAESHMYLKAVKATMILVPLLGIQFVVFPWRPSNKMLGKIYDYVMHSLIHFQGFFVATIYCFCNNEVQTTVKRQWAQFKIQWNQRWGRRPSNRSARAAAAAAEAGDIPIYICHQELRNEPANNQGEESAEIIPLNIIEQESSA
Briefly: SPA competition against 125I-calcitonin, membranes of BHK cells with human calcitonin receptor (Assay VII). On the procedure:
Membranes were prepared in the following way; the cells were rinsed with PBS and incubated with Versene for approximately 5 min before harvesting. The cells were flushed with PBS and the cell-suspension was centrifuged for 5 min at 1000 rpm. Cells were homogenized (Ultrathurrax) in a buffer containing 20 mM Na-HEPES and 10 mM EDTA (pH 7.4) and centrifuged at 20.000 rpm for 15 min. The resulting pellet was resuspended, homogenized and centrifuged (20.000 rpm, 15 min) in a buffer containing 20 mM Na-HEPES and 0.1 mM EDTA (pH 7.4, buffer 2). The resulting pellet was resuspended in buffer 2 and protein concentration was measured (BCA protein Assay, Pierce). The homogenate was kept cold during the whole procedure. The membranes were kept at −80° C. until use. Assay was performed in a 384 well Optiplate (PerkinElmer) in a total volume of 40 ul. Membranes were mixed with SPA beads. Final concentration of membranes 35 ng/μL final and Final concentration of SPA beads was 0.05 mg/well. Test-compounds were dissolved in DMSO and further diluted in assay buffer (50 mM Hepes, pH 7.4, 1 mM CaCl2, 5 mM MgCl₂, 0.1% OA and 0.02% Tween20). […] The final mixture was incubated for 120 min with shaking at 400 rpm at 25° C. prior to centrifugation (1500 rpm, 10 min). Samples were analyzed on TopCounter™ (Packard). The […] was calculated using (one site binding competition analysis) GraphPad Prism5 as a measure of receptor affinity.

Assay [2] deals with T1, human calcitonin receptor. Kind of assay: ratio of IC50 at hCTR over IC50 at hAmylin-R (SPA competition assays). On the procedure: The resulting pellet was resuspended, homogenized and centrifuged (20.000 rpm, 15 min) in a buffer containing 20 mM Na-HEPES and 0.1 mM EDTA (pH 7.4, buffer 2). The resulting pellet was resuspended in buffer 2 and protein concentration was measured (BCA protein Assay, Pierce). The homogenate was kept cold during the whole procedure. The membranes were kept at −80° C. until use. The assay was performed in a 384 well Optiplate (PerkinElmer) in a total volume of 40 ul. Membranes were mixed with SPA beads. Final concentration of membranes 35 ng/μL final and SPA beads was 0.05 mg/well. Test-compounds were dissolved in DMSO and further diluted in assay buffer (50 mM Hepes, pH 7.4, 1 mM CaCl2, 5 mM MgCl₂, 0.1% OA and 0.02% Tween20). […] The final mixture was incubated with shaking at 400 rpm for 120 min at 25° C. prior to centrifugation (1500 rpm, 10 min). Samples were analyzed on TopCounter™ (Packard). The IC₅₀ was calculated using (one site binding competition analysis) GraphPad Prism5 as a measure of receptor affinity.
Membranes were prepared in the following way; the cells were rinsed with PBS and incubated with Versene for approximately 5 min before harvesting. The cells were flushed with PBS and the cell-suspension was centrifuged for 5 min at 1000 rpm. Cells were homogenized (Ultrathurrax) in a buffer containing 20 mM Na-HEPES and 10 mM EDTA (pH 7.4) and centrifuged at 20.000 rpm for 15 min. The resulting pellet was resuspended, homogenized and centrifuged (20.000 rpm, 15 min) in a buffer containing 20 mM Na-HEPES and 0.1 mM EDTA (pH 7.4, buffer 2). The resulting pellet was resuspended in buffer 2 and protein concentration was measured (BCA protein Assay, Pierce). The homogenate was kept cold during the whole procedure. The membranes were kept at −80° C. until use. Assay was performed in a 384 well Optiplate (PerkinElmer) in a total volume of 40 ul. Membranes were mixed with SPA beads.

B1: N^ε1-[(4S)-4-carboxy-4-[[(4S)-4-carboxy-4-(19-carboxynonadecanoylamino)butanoyl]amino]butanoyl]-[D-Asp14,Arg17,Pro21,Pro27,Arg35]-h-amylin (peptide)
peptide: K([γGlu-γGlu-C20 diacid])CNTATCATQRLA[dD]FLRHSSPNFGAIPSSTNVGSRTY-NH2
modifications: disulfide 2-7; N-terminus assumed
SMILES: CC[C@H](C)[C@H](NC(=O)[C@H](C)NC(=O)CNC(=O)[C@H](Cc1ccccc1)NC(=O)[C@H](CC(N)=O)NC(=O)[C@@H]1CCCN1C(=O)[C@H](CO)NC(=O)[C@H](CO)NC(=O)[C@H](Cc1c[nH]cn1)NC(=O)[C@H](CCCNC(=N)N)NC(=O)[C@H](CC(C)C)NC(=O)[C@H](Cc1ccccc1)NC(=O)[C@@H](CC(=O)O)NC(=O)[C@H](C)NC(=O)[C@H](CC(C)C)NC(=O)[C@H](CCCNC(=N)N)NC(=O)[C@H](CCC(N)=O)NC(=O)[C@@H](NC(=O)[C@H](C)NC(=O)[C@@H]1CSSC[C@H](NC(=O)[C@@H](N)CCCCNC(=O)CC[C@H](NC(=O)CC[C@H](NC(=O)CCCCCCCCCCCCCCCCCCC(=O)O)C(=O)O)C(=O)O)C(=O)N[C@@H](CC(N)=O)C(=O)N[C@@H]([C@@H](C)O)C(=O)N[C@@H](C)C(=O)N[C@@H]([C@@H](C)O)C(=O)N1)[C@@H](C)O)C(=O)N1CCC[C@H]1C(=O)N[C@@H](CO)C(=O)N[C@@H](CO)C(=O)N[C@H](C(=O)N[C@@H](CC(N)=O)C(=O)N[C@H](C(=O)NCC(=O)N[C@@H](CO)C(=O)N[C@@H](CCCNC(=N)N)C(=O)N[C@H](C(=O)N[C@@H](Cc1ccc(O)cc1)C(N)=O)[C@@H](C)O)C(C)C)[C@@H](C)O
notes: Residue 14 is D-aspartic acid (printed 14d)
By IC50 is commonly meant the concentration that gives 50% inhibition. On to B1, for which the IC50 in assay [1] was determined as 112 nM.

B2: N^-1-[(4S)-4-carboxy-4-(19-carboxynonadecanoylamino)butanoyl]-Gly[Arg1,His14,Arg17,Pro21,Pro27,His34]-h-amylin (peptide)
peptide: {C20 diacid-γGlu}-GRCNTATCATQRLAHFLRHSSPNFGAIPSSTNVGHNTY-NH2
modifications: disulfide 3-8
SMILES: CC[C@H](C)[C@H](NC(=O)[C@H](C)NC(=O)CNC(=O)[C@H](Cc1ccccc1)NC(=O)[C@H](CC(N)=O)NC(=O)[C@@H]1CCCN1C(=O)[C@H](CO)NC(=O)[C@H](CO)NC(=O)[C@H](Cc1c[nH]cn1)NC(=O)[C@H](CCCNC(=N)N)NC(=O)[C@H](CC(C)C)NC(=O)[C@H](Cc1ccccc1)NC(=O)[C@H](Cc1c[nH]cn1)NC(=O)[C@H](C)NC(=O)[C@H](CC(C)C)NC(=O)[C@H](CCCNC(=N)N)NC(=O)[C@H](CCC(N)=O)NC(=O)[C@@H](NC(=O)[C@H](C)NC(=O)[C@@H]1CSSC[C@H](NC(=O)[C@H](CCCNC(=N)N)NC(=O)CNC(=O)CC[C@H](NC(=O)CCCCCCCCCCCCCCCCCCC(=O)O)C(=O)O)C(=O)N[C@@H](CC(N)=O)C(=O)N[C@@H]([C@@H](C)O)C(=O)N[C@@H](C)C(=O)N[C@@H]([C@@H](C)O)C(=O)N1)[C@@H](C)O)C(=O)N1CCC[C@H]1C(=O)N[C@@H](CO)C(=O)N[C@@H](CO)C(=O)N[C@H](C(=O)N[C@@H](CC(N)=O)C(=O)N[C@H](C(=O)NCC(=O)N[C@@H](Cc1c[nH]cn1)C(=O)N[C@@H](CC(N)=O)C(=O)N[C@H](C(=O)N[C@@H](Cc1ccc(O)cc1)C(N)=O)[C@@H](C)O)C(C)C)[C@@H](C)O
notes: also called compound 100
As for B2, in assay [1], the IC50 worked out at 66.3 nM. For the same molecule, in assay [2], the “Ratio hCT/hAmylin binding” value amounted to 65.3.

B3: N^-1-[(4S)-4-carboxy-4-(19-carboxynonadecanoylamino)butanoyl]-Gly[Arg1,Ala14,Arg17,Pro21,Pro27,His34]-h-amylin (peptide)
peptide: {C20 diacid-γGlu}-GRCNTATCATQRLAAFLRHSSPNFGAIPSSTNVGHNTY-NH2
modifications: disulfide 3-8
SMILES: CC[C@H](C)[C@H](NC(=O)[C@H](C)NC(=O)CNC(=O)[C@H](Cc1ccccc1)NC(=O)[C@H](CC(N)=O)NC(=O)[C@@H]1CCCN1C(=O)[C@H](CO)NC(=O)[C@H](CO)NC(=O)[C@H](Cc1c[nH]cn1)NC(=O)[C@H](CCCNC(=N)N)NC(=O)[C@H](CC(C)C)NC(=O)[C@H](Cc1ccccc1)NC(=O)[C@H](C)NC(=O)[C@H](C)NC(=O)[C@H](CC(C)C)NC(=O)[C@H](CCCNC(=N)N)NC(=O)[C@H](CCC(N)=O)NC(=O)[C@@H](NC(=O)[C@H](C)NC(=O)[C@@H]1CSSC[C@H](NC(=O)[C@H](CCCNC(=N)N)NC(=O)CNC(=O)CC[C@H](NC(=O)CCCCCCCCCCCCCCCCCCC(=O)O)C(=O)O)C(=O)N[C@@H](CC(N)=O)C(=O)N[C@@H]([C@@H](C)O)C(=O)N[C@@H](C)C(=O)N[C@@H]([C@@H](C)O)C(=O)N1)[C@@H](C)O)C(=O)N1CCC[C@H]1C(=O)N[C@@H](CO)C(=O)N[C@@H](CO)C(=O)N[C@H](C(=O)N[C@@H](CC(N)=O)C(=O)N[C@H](C(=O)NCC(=O)N[C@@H](Cc1c[nH]cn1)C(=O)N[C@@H](CC(N)=O)C(=O)N[C@H](C(=O)N[C@@H](Cc1ccc(O)cc1)C(N)=O)[C@@H](C)O)C(C)C)[C@@H](C)O
Take B3: the IC50 in assay [1] worked out at 29.2 nM. For the same molecule, in assay [2], the “Ratio hCT/hAmylin binding” value stood at 68.6.

B4: N^-1-[(4S)-4-carboxy-4-(19-carboxynonadecanoylamino)butanoyl]-Gly[Arg1,His14,Arg17,Pro21,Pro27,Pro34]-h-amylin (peptide)
peptide: {C20 diacid-γGlu}-GRCNTATCATQRLAHFLRHSSPNFGAIPSSTNVGPNTY-NH2
modifications: disulfide 3-8
SMILES: CC[C@H](C)[C@H](NC(=O)[C@H](C)NC(=O)CNC(=O)[C@H](Cc1ccccc1)NC(=O)[C@H](CC(N)=O)NC(=O)[C@@H]1CCCN1C(=O)[C@H](CO)NC(=O)[C@H](CO)NC(=O)[C@H](Cc1c[nH]cn1)NC(=O)[C@H](CCCNC(=N)N)NC(=O)[C@H](CC(C)C)NC(=O)[C@H](Cc1ccccc1)NC(=O)[C@H](Cc1c[nH]cn1)NC(=O)[C@H](C)NC(=O)[C@H](CC(C)C)NC(=O)[C@H](CCCNC(=N)N)NC(=O)[C@H](CCC(N)=O)NC(=O)[C@@H](NC(=O)[C@H](C)NC(=O)[C@@H]1CSSC[C@H](NC(=O)[C@H](CCCNC(=N)N)NC(=O)CNC(=O)CC[C@H](NC(=O)CCCCCCCCCCCCCCCCCCC(=O)O)C(=O)O)C(=O)N[C@@H](CC(N)=O)C(=O)N[C@@H]([C@@H](C)O)C(=O)N[C@@H](C)C(=O)N[C@@H]([C@@H](C)O)C(=O)N1)[C@@H](C)O)C(=O)N1CCC[C@H]1C(=O)N[C@@H](CO)C(=O)N[C@@H](CO)C(=O)N[C@H](C(=O)N[C@@H](CC(N)=O)C(=O)N[C@H](C(=O)NCC(=O)N1CCC[C@H]1C(=O)N[C@@H](CC(N)=O)C(=O)N[C@H](C(=O)N[C@@H](Cc1ccc(O)cc1)C(N)=O)[C@@H](C)O)C(C)C)[C@@H](C)O
Take B4: the IC50 in assay [1] came to 7.87 nM. In addition, in assay [2], the “Ratio hCT/hAmylin binding” value was found to be 36.2.

Turning to {C20 diacid-γGlu}-GRCNTATCATQRLAAFLRHSSPNFGAIPSSTNVGPNTY-NH2 (disulfide 3-8), the IC50 in assay [1] was 3 nM. In assay [2], the “Ratio hCT/hAmylin binding” value worked out at 26.5.
